Test [1] addresses T1, FAP on hPrCSC-44 cells (human (endogenous in hPrCSC-44), UniProt Q12884 1-760).
T1 construct: also called endogenous FAP; source: endogenous, hPrCSC-44 immortalized cancer-associated fibroblast cells, on cells
T1 sequence (looked up): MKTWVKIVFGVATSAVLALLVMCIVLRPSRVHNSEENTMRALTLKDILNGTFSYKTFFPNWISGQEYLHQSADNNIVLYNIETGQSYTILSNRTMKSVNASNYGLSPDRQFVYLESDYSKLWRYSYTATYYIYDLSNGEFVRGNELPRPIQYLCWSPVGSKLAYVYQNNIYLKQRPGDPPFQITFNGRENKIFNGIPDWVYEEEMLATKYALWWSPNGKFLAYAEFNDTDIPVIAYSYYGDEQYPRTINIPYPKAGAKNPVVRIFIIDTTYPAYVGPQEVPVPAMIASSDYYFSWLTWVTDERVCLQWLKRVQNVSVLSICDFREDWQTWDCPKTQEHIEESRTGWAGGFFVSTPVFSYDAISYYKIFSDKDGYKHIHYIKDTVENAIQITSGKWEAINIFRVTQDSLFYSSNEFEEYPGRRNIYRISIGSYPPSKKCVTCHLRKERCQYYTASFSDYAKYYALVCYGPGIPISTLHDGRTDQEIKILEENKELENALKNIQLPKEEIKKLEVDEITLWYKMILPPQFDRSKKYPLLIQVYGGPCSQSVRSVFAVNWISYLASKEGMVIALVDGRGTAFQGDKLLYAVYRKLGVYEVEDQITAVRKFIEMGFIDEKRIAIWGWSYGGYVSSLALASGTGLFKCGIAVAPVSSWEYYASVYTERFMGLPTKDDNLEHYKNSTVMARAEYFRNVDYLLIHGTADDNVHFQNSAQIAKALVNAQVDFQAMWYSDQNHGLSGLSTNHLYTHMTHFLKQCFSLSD
As to the kind of experiment: flow cytometry on cells; cells incubated with VNAR-Fc (several concentrations, or fixed 100 nM) 1 h on ice, detected with PE-labeled anti-human IgG Fc; KD from logistic fitting of mean fluorescence intensity. The following applies: one partner purified.

Test [2] addresses T2, FAP on CWR-R1^FAP cells (human, UniProt Q12884 1-760).
T2 construct: also called CWR-R1-EnzR^FAP
T2 sequence (looked up): T1 sequence (looked up)
The description is as above. As to conditions: one partner purified.

Test [3] concerns the target T3, recombinant human fibroblast activation protein (human, UniProt Q12884 39-757, biotin (EZ-link NHS-PEG4-biotin)).
T3 construct: also called hFAP; human FAP; source: bought: Acro Biosystems
T3 sequence: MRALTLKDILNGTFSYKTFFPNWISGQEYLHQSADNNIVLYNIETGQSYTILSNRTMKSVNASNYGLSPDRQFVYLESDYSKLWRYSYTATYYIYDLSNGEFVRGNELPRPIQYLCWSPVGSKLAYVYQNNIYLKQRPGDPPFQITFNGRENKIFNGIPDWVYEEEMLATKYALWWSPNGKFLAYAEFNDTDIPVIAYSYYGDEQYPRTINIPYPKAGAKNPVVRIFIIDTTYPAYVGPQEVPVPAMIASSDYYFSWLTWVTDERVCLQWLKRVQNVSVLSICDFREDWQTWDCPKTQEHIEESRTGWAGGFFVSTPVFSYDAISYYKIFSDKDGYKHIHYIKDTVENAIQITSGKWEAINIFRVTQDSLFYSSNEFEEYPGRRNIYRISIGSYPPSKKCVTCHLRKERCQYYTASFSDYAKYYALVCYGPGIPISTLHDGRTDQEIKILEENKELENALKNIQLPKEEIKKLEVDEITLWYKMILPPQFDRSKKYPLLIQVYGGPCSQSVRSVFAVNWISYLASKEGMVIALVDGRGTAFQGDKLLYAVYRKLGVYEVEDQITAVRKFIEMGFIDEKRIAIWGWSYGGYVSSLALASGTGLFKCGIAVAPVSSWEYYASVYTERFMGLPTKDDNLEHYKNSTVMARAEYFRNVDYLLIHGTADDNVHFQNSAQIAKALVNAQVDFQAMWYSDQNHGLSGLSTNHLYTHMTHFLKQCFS
As to the kind of experiment: BLI; biotinylated bait protein (30 nM) loaded on Octet streptavidin (SAX) biosensors; serially diluted VNAR-Fc (300-0.412 nM) as analyte; PBS with 1% BSA; kinetic analysis with a bivalent analyte model. The following applies: both partners purified.

B1: NGS2405-Fc (Fc fusion, nurse shark (Ginglymostoma cirratum))
chain: ARVDQTPQTITKETGESLTINCVLRDSNCALSFTYWYRKKSGSTNEESISKGGRYVETVNSGSKSFSLRINDLTVEDSGTYRCNVYVGGGCPHWIDVYGDGTAVTVN
notes: Bivalent human IgG1 Fc fusion (vector TGEX-SCblue); also called VNAR-Fc; source: ExpiCHO-S, transfected, purified (protein A, SEC)
As to B1, the Kd is 6.03 nM in test [1], 8.44 nM in test [2] and 0.356 nM in test [3].

B2: H4-Fc (Fc fusion, nurse shark (Ginglymostoma cirratum))
chain: ARVDQTPQTITKETGESLTINCVLRDSNCALSSTYWYRKKSGSTNEESISKGGRYVETVNSGSKSFSLRINDLTVEDSGTYRCNVYVAGMSPCLSWGDVYGDGTAVTVN
notes: Bivalent human IgG1 Fc fusion (vector TGEX-SCblue); also called anti-FAP VNAR H4; VNAR-Fc; source: ExpiCHO-S, transfected, purified (protein A, SEC)
Consider B2, for which the Kd in test [1] was determined as 15.6 nM; in test [2], 12 nM; in test [3], 0.0141 nM.

For the origin of these results see publication PMC12350670, “The characterization of variable new antigen receptors targeting FAP isolated from a novel immunized library” (Communications Biology, 2025).
